Data on one molecule can be found in article PMC3392491.

This data set concerns the target T1, Dda K38A (bacteriophage T4, UniProt P32270 1-439, K38A).
T1 sequence: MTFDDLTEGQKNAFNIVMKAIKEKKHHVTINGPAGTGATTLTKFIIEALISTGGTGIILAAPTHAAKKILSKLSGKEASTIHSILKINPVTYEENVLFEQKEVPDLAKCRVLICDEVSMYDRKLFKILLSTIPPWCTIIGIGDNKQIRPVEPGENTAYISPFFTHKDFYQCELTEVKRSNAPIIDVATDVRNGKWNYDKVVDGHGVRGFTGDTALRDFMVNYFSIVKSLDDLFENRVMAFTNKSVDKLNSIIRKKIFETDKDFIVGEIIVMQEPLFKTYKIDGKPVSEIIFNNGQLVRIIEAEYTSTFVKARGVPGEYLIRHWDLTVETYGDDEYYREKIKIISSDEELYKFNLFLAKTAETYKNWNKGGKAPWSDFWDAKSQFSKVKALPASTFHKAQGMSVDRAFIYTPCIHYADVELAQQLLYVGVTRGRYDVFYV
Description: X-ray crystallography.

Consider TTTTTTTT (ssDNA) [dT8], for which the binding result was “binds”.
